# According to EP4671282A1:
# pEC50: −log10 of the molar value. Read-outs that look alike come from different tables or passages of the source.
# Columns and labels:
# [1] = molecular target: human IL-36R full-length protein stably expressed on CHO-K1 cells (human) (UniProt Q9HB29); assay: FACS, CHO-K1 cells overexpressing human IL-36R
# [2] = molecular target: human IL-36R full-length protein stably expressed on CHO-K1 cells (human) (UniProt Q9HB29); assay: FACS, CHO-K1 cells overexpressing human IL-36R; remark: listed apart in the source
# [3] = molecular target: human BAFF (ACROBiosystems, BAF-H52D4) (human) (UniProt Q9Y275); assay: ELISA, test sample coated, His-tagged BAFF in solution
# human IL-36R full-length protein stably expressed on CHO-K1 cells (human), sequence (Q9HB29 20-575 limits assumed): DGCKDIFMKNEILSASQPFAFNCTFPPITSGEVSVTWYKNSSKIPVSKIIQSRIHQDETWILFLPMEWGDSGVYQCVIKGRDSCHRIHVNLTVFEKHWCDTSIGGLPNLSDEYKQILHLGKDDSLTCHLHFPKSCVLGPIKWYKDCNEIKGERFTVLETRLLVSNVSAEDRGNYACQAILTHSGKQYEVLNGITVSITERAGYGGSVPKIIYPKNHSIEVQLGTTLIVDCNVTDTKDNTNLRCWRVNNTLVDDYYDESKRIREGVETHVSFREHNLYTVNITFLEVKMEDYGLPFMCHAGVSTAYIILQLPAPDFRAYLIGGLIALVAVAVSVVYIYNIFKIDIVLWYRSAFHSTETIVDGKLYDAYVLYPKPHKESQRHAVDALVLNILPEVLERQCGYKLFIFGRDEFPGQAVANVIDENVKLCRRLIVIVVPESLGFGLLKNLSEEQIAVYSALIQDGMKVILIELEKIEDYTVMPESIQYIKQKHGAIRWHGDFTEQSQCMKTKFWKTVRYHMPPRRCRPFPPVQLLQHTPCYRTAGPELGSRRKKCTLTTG
Maximum MFI [1] [MFI],Maximum MFI [2] [MFI],pEC50 [3],Substance
47,77,,hIgG1 (antibody)
,76,,hIgG4 (antibody)
,,7.67,"RCT-18, telitacicept (RC18, RemeGen) (Fc fusion)"
